According to article PMC3445459:

Legend:
[1] = biological target: LEDGF/p75 (UniProt O75475); assay: AlphaScreen or HTRF; IN-LEDGF/p75 interaction assay as previously described (ref. 32), mutant IN proteins in place of WT; signal relative to WT IN
[2] = biological target: HIV-1 integrase E85F, 6xHis-tagged (HIV-1 (NL4-3))
[3] = biological target: HIV-1 integrase E85F, 6xHis-tagged (HIV-1 (NL4-3)); remark: listed apart in the source
[4] = biological target: HIV-1 integrase W108F, 6xHis-tagged (HIV-1 (NL4-3))
[5] = biological target: HIV-1 integrase K103E, 6xHis-tagged (HIV-1 (NL4-3))

UniProt O75475, sequence (O75475 whole entry): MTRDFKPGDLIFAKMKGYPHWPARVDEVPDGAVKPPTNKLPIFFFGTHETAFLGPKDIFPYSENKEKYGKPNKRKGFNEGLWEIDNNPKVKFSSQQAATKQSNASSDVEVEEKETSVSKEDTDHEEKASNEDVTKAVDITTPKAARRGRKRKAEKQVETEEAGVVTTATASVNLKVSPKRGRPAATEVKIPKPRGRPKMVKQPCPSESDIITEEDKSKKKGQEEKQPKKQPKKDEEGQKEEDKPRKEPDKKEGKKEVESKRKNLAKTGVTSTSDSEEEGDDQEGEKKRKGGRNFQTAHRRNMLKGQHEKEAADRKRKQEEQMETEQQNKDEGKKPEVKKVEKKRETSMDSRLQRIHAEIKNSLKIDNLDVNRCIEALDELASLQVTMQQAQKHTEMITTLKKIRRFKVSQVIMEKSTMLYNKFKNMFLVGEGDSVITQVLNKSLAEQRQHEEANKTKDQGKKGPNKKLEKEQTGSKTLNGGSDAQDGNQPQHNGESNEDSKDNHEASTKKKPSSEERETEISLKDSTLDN

Substance: HIV-1 integrase K103G, 6xHis-tagged (enzyme)
- interaction relative to WT IN (of the WT interaction) [1]: < 0.33
- percent of the WT interaction level [1]: 30 % of WT

Substance: HIV-1 integrase E85F, 6xHis-tagged (enzyme)
- in vitro strand transfer activity with 21-mer DNA substrate, relative to WT IN [2]: 37 % of WT
- in vitro strand transfer activity with pre-processed 19-mer DNA substrate, relative to WT IN [3]: 1.6 fold of WT

Substance: HIV-1 integrase W108F, 6xHis-tagged (enzyme)
- in vitro strand transfer activity with pre-processed 19-mer DNA substrate, relative to WT IN [4]: 30 % of WT

Substance: HIV-1 integrase K103E, 6xHis-tagged (enzyme)
- in vitro strand transfer activity with pre-processed 19-mer DNA substrate, relative to WT IN [5]: 29 % of WT
